Measurements as given in article PMC6167383, “Regulatory control of DNA end resection by Sae2 phosphorylation” (Nature Communications, 2018).
Substitutions are numbered along the chain they refer to. In names and notes the source's numbering stands. One block for each binder: values may come before it.

How the values were obtained:
[1] = target: T1, pSae2 λ (dephosphorylated) (Saccharomyces cerevisiae, UniProt P46946 1-345); test: EMSA; lambda phosphatase-treated; 2 mM Mg2+; 25 mM Tris-acetate pH 7.5, 1 mM DTT, 2 mM Mg acetate, 0.1 mg/ml BSA, 1 nM DNA, 30 C; 1 mM ATP with MRX; 30 nM streptavidin where indicated; native PAGE in TBE; settings: protein: recombinant; tags: C-terminal His; N-terminal MBP cleaved with PreScission; label: 3' 32P-cordycepin; blunt before 3' labeling
T1 sequence: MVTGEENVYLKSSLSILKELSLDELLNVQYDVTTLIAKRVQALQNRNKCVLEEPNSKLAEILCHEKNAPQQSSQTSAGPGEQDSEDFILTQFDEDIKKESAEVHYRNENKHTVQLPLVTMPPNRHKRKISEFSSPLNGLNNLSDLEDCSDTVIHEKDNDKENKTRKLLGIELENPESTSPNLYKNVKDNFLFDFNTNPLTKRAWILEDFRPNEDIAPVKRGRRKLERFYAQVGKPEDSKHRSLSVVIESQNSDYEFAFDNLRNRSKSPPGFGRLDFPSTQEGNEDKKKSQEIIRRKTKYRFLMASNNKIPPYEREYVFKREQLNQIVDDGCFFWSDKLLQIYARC

[2] = target: the molecule itself; test: SEC; Superose 6 10/300 GL, 50 mM Tris-HCl pH 7.5, 150 mM NaCl, 10% glycerol, 0.5 mM β-mercaptoethanol, 4 °C; ~75 μg of the Sae2 variant, mock-treated or treated with λ phosphatase for 90 min at 30 °C before loading; absorbance at 215 nm
[3] = target: T2, S. cerevisiae Mre11-Rad50-Xrs2 complex (S. cerevisiae, UniProt P32829 1-692; P12753 1-1312; P33301 1-854); test: pull-down; MBP-tagged Sae2 on amylose resin (mock-treated or λ phosphatase-treated on the resin), 5 μg recombinant MRX, 1 h at 4 °C; wash 50 mM Tris-HCl pH 7.5, 2 mM EDTA, 80 mM NaCl, 0.2% NP40; eluted with 20 mM maltose; silver staining; settings: both partners purified
T2 construct: Mre11, S. cerevisiae; Rad50, S. cerevisiae; Xrs2, S. cerevisiae; also called MRX; MRX complex; copies: + +
T2 sequence (P32829 whole entry, chain 1 of 3): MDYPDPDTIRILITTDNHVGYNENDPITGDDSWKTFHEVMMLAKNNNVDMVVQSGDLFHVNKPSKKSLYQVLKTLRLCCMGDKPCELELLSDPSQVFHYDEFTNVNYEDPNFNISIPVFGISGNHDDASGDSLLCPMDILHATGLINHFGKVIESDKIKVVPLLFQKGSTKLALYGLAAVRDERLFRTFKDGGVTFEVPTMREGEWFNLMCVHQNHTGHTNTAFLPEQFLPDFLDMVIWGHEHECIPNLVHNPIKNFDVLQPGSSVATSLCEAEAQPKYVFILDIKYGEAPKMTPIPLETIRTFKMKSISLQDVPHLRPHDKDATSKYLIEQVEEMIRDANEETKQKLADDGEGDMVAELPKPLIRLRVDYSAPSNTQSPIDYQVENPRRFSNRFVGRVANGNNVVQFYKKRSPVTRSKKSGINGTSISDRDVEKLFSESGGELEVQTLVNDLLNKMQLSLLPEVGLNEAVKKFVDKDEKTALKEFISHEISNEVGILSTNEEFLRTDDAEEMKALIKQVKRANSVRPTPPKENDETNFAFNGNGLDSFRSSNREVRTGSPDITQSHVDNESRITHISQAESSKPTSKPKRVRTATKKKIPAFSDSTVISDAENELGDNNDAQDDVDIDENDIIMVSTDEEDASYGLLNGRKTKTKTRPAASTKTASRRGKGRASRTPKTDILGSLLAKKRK
T2 sequence (P12753 whole entry, chain 2 of 3): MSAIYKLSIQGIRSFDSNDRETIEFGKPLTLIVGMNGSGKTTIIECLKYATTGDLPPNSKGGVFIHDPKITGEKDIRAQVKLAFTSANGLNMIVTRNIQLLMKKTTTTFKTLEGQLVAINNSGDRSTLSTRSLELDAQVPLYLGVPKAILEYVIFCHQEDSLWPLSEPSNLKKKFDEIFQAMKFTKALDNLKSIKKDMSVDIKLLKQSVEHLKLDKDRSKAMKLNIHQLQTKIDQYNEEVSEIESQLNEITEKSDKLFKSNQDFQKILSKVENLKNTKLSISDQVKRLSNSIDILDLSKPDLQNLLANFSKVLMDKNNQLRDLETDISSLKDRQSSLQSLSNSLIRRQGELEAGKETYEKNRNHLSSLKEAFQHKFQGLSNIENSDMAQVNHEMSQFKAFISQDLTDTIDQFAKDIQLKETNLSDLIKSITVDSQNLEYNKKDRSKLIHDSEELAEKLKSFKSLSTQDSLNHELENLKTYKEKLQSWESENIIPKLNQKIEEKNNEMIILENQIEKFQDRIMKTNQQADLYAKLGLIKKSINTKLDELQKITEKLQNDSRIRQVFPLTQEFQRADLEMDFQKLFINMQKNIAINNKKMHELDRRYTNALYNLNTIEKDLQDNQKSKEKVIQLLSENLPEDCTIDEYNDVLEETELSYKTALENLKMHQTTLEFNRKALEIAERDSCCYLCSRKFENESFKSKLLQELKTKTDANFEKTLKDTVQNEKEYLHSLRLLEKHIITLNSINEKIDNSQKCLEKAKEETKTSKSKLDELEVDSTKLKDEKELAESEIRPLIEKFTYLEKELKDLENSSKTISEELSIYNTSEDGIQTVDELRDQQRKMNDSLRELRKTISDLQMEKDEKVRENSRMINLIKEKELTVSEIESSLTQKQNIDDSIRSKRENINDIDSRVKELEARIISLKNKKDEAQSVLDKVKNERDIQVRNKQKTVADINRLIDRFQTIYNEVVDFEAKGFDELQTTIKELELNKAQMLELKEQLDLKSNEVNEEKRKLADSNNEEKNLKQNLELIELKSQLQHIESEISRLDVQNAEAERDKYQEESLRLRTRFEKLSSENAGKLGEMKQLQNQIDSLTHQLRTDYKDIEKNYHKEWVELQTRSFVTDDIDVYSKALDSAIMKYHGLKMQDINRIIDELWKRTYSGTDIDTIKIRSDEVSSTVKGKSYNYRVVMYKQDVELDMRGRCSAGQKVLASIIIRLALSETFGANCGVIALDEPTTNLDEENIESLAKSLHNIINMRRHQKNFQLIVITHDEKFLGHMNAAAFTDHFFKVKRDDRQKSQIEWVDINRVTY
T2 sequence (P33301 whole entry, chain 3 of 3): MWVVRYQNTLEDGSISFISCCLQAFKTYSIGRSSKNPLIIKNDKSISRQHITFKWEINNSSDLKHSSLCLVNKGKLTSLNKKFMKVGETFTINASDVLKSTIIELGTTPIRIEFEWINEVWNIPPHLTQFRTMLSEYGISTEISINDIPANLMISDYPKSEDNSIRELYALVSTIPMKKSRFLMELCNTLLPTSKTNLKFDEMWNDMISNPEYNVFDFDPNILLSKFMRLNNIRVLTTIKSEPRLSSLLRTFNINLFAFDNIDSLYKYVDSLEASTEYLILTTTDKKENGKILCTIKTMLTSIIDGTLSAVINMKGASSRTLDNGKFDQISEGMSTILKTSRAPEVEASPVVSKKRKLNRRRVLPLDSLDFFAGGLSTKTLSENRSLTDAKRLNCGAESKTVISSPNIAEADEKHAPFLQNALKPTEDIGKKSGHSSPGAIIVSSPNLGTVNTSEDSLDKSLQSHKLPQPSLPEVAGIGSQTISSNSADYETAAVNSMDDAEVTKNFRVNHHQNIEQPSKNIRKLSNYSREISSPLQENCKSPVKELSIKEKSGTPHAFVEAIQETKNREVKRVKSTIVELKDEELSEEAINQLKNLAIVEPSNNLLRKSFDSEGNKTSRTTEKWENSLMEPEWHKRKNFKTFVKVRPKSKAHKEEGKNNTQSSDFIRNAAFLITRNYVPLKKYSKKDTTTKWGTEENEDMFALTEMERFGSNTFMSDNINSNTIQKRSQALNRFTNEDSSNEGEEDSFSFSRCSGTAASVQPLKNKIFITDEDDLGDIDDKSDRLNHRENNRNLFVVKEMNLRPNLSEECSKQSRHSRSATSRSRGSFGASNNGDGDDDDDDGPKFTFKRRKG

[4] = target: the molecule itself; test: atomic force microscopy (particle volume analysis); 50 nM pSae2 in 40 mM Hepes pH 7, 5 mM MgCl2, 25 mM NaCl, 0.1 mM TCEP deposited on mica, imaged in air, without DNA; molecular weight from a published standard curve

B1: 100 bp dsDNA (Bio100/Bio100c) (dsDNA)
DNA 1: GTAAGTGCCGCGGTGCGGGTGCCAGGGCGTGCCCTTGGGCTCCCCGGGCGCGTACTCCACCTCATAATCTTCTGCCATGGTCGTAGCAGCCTCCTGCATC
DNA 2: GATGCAGGAGGCTGCTACGACCATGGCAGAAGATTATGAGGTGGAGTACGCGCCCGGGGAGCCCAAGGGCACGCCCTGGCACCCGCACCGCGGCACTTAC
modifications: internal biotin-T in Bio100 (bold T; exact position not visible in the text)
- binding result [1]: binds

B2: pSae2 ΔC95, lacking 95 C-terminal residues (domain or fragment, S. cerevisiae, UniProt P46946 1-250, looked up)
chain: MVTGEENVYLKSSLSILKELSLDELLNVQYDVTTLIAKRVQALQNRNKCVLEEPNSKLAEILCHEKNAPQQSSQTSAGPGEQDSEDFILTQFDEDIKKESAEVHYRNENKHTVQLPLVTMPPNRHKRKISEFSSPLNGLNNLSDLEDCSDTVIHEKDNDKENKTRKLLGIELENPESTSPNLYKNVKDNFLFDFNTNPLTKRAWILEDFRPNEDIAPVKRGRRKLERFYAQVGKPEDSKHRSLSVVIESQ
modifications: phosphorylated (named pSae2; sites not listed)
notes: Sae2, S. cerevisiae, lacking the 95 C-terminal residues; source: Sf9, purified as pSae2; not shown: MBP, N-terminal, cleaved
- binding result [2]: binds

B3: pSae2 S267A, expressed in the presence of phosphatase inhibitors (natural protein, S. cerevisiae, UniProt P46946 1-345, looked up)
chain: T1 sequence with S267A
modifications: phosphorylated (prepared with phosphatase inhibitors; sites not listed)
notes: Sae2, S. cerevisiae, point mutant made in the pFB-MBP-Sae2-his plasmid; not shown: MBP, N-terminal, cleaved
- binding result [2]: binds

- binding result [3]: binds
B4: full-length recombinant MBP-tagged Sae2 dephosphorylated with λ phosphatase on amylose resin (natural protein, S. cerevisiae, UniProt P46946 1-345, looked up)
chain: T1 sequence
modifications: dephosphorylated with λ phosphatase on the resin
notes: Sae2, S. cerevisiae, full-length polypeptide; also called non-phosphorylated MBP-tagged Sae2; not shown: MBP, N-terminal, kept

B5: pSae2 S267E dephosphorylated with λ phosphatase (natural protein, S. cerevisiae, UniProt P46946 1-345, looked up)
chain: T1 sequence with S267E
modifications: dephosphorylated with λ phosphatase
notes: Sae2, S. cerevisiae, full-length polypeptide with S267E; also called pSae2 S267E λ; not shown: MBP, N-terminal, cleaved
- binding result [2]: binds

B6: hyperphosphorylated recombinant Sae2 (pSae2), expressed and purified with phosphatase inhibitors (natural protein, S. cerevisiae, UniProt P46946 1-345, looked up)
chain: T1 sequence
modifications: hyperphosphorylated (phosphatase inhibitors in culture and lysis buffer); estimate of 17 phosphorylation sites; sites not listed in the text
notes: Sae2, S. cerevisiae, full-length polypeptide (ends at residue 345 by the legend's 170-345); Tetramer by AFM volume analysis; also called phosphorylated Sae2; wt pSae2; not shown: MBP, N-terminal, cleaved
- stoichiometry N [4]: 4

B7: pSae2 S267E phosphomimicking variant, expressed in the presence of phosphatase inhibitors (natural protein, S. cerevisiae, UniProt P46946 1-345, looked up)
chain: T1 sequence with S267E
modifications: phosphorylated (prepared with phosphatase inhibitors; sites not listed)
notes: Sae2, S. cerevisiae, full-length polypeptide with S267E; not shown: MBP, N-terminal, cleaved
- binding result [2]: binds

- binding result [3]: binds
B8: full-length phosphorylated recombinant MBP-tagged pSae2 (mock-treated), on amylose resin (natural protein, S. cerevisiae, UniProt P46946 1-345, looked up)
chain: T1 sequence
modifications: phosphorylated (phosphatase inhibitors; mock-treated); sites not listed
notes: Sae2, S. cerevisiae, full-length polypeptide; The MBP tag was cleaved off only after elution of the complexes; also called MBP-tagged Sae2; MBP-Sae2-His; not shown: MBP, N-terminal, kept
